Experiment [1] deals with Type I gelatin (heat-denatured acid-soluble type I atelocollagen from bovine hides) (bovine). Briefly: ELISA. (In general: An ELISA detects its analyte on a solid surface through an enzyme-linked reagent.)
Experiment [2] has as its target V-(GXY)26 (Streptococcus pyogenes). Briefly: MST; NanoTemper Monolith NT.115, Protein Labeling Kit RED-NHS; 50 mM HEPES pH 7.5, 150 mM NaCl, 10 mM CaCl2, 10 µM ZnCl2, 0.05% Tween-20, 3 mM NaN3; without ß-mercaptoethanol (nonreducing) (Fig. 5F).
For experiment [3] the target is unchanged. Briefly: MST; NanoTemper Monolith NT.115, Protein Labeling Kit RED-NHS; 50 mM HEPES pH 7.5, 150 mM NaCl, 10 mM CaCl2, 10 µM ZnCl2, 0.05% Tween-20, 3 mM NaN3; with 1 mM ß-mercaptoethanol (reducing) (Fig. 5F).
The target of experiment [4] is Acid-soluble type I atelocollagen from bovine hides (bovine) (UniProt P02453). In words: ELISA.
Chain of Acid-soluble type I atelocollagen from bovine hides (bovine) (P02453 162-1217, chain 1 of 2): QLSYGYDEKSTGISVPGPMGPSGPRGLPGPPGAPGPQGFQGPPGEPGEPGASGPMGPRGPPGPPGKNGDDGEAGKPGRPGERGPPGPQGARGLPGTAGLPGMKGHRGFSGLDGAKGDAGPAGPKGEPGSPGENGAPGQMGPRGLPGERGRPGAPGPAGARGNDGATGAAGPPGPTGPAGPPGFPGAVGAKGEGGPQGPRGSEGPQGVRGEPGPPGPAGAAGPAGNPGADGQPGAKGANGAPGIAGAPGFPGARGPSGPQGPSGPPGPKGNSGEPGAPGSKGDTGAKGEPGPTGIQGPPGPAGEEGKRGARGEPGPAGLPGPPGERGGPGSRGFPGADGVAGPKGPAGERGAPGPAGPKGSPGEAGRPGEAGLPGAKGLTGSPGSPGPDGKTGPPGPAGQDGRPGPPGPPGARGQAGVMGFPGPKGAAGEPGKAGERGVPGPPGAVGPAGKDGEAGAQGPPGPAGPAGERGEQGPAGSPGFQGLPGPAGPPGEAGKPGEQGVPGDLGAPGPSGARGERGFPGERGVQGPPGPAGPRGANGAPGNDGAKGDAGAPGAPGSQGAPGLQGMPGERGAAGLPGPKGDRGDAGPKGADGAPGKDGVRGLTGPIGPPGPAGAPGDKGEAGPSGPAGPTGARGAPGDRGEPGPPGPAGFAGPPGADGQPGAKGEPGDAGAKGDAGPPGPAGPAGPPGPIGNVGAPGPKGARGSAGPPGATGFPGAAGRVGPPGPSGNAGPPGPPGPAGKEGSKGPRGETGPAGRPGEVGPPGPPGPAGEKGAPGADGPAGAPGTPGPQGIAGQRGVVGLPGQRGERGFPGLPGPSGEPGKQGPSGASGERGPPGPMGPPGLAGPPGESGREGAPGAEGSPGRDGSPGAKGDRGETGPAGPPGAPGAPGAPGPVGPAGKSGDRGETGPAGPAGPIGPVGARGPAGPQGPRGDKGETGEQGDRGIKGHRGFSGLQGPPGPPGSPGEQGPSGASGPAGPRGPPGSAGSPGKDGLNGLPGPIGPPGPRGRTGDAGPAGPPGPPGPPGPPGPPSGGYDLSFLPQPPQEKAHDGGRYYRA
Chain of Acid-soluble type I atelocollagen from bovine hides (bovine) (P02465 80-1117, chain 2 of 2, further chain): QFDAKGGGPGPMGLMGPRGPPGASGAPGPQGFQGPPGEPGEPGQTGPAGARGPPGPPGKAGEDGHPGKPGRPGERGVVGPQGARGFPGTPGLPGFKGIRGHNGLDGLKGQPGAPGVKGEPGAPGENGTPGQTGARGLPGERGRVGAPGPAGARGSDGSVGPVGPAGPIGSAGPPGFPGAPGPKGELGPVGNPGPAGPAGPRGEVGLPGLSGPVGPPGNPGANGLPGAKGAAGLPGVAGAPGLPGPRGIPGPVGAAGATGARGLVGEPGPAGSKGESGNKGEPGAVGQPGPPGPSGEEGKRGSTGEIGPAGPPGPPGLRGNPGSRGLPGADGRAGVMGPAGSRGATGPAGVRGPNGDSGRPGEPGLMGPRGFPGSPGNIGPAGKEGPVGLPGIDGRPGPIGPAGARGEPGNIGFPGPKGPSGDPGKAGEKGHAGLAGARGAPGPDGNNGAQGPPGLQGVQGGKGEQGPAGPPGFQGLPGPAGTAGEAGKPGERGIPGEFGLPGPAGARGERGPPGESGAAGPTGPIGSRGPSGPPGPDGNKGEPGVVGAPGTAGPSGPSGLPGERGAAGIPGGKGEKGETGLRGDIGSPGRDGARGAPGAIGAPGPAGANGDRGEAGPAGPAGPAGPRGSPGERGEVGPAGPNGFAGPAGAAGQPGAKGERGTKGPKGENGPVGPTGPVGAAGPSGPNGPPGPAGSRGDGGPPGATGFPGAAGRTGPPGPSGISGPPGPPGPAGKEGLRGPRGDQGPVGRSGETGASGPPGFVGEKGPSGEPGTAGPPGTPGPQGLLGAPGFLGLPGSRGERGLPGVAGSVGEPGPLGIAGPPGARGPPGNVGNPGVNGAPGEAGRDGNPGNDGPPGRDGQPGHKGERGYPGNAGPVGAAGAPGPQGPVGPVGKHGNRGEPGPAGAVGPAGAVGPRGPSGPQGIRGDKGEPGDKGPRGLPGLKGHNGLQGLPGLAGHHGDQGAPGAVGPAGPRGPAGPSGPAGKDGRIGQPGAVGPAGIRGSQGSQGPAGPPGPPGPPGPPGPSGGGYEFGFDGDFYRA
Experiment [5] has as its target type I gelatin (heat-denatured acid-soluble type I atelocollagen from bovine hides) (bovine) (UniProt P02453). Briefly: ELISA.
Experiment [6] has as its target Type I gelatin (heat-denatured acid-soluble type I atelocollagen from bovine hides) (bovine). Briefly: ELISA; indirect ELISA; gelatin immobilised, ColQ1-CU G472V variants in solution; 37 °C (Fig. 4B).
In experiment [7] the target is Acid-soluble type I atelocollagen from bovine hides (bovine) (UniProt P02453). Briefly: ELISA; indirect ELISA; soluble collagen immobilised, ColQ1-CU G472V variants in solution; 25 °C to preserve the triple-helical fold (Fig. 4C).
Experiment [8] has as its target Type I gelatin (heat-denatured acid-soluble type I atelocollagen from bovine hides). In words: indirect ELISA. Conditions: 37 °C; parent: est. 1.5 µM; read off a plot.
The target of experiment [9] is V-domain of Scl2.3 (Streptococcus pyogenes). Briefly: SDS-PAGE (SDS-stable oligomer); 12% nonreducing SDS-PAGE of 10 µM V-(GXY)26 incubated with or without ColG-CU at 25 °C (Fig. 2C).
For experiment [10], the target named is Acid-soluble type I atelocollagen from bovine hides (bovine, UniProt P02453 162-1217; P02465 80-1117). In words: ELISA. Conditions: both partners purified.
Chain of Acid-soluble type I atelocollagen from bovine hides (P02453 162-1217, chain 1 of 2): as the sequence (P02453 162-1217, chain 1 of 2) above
Chain of Acid-soluble type I atelocollagen from bovine hides (P02465 80-1117, chain 2 of 2): as the sequence (P02465 80-1117, chain 2 of 2, further chain) above
Experiment [11] deals with T1, soluble type I collagen (acid-soluble type I atelocollagen from bovine hides) (bovine, UniProt P02453 162-1217; P02465 80-1117).
T1 construct: also called soluble collagen; tropocollagen
T1 sequence (P02453 162-1217, chain 1 of 2): as the sequence (P02453 162-1217, chain 1 of 2) above
T1 sequence (P02465 80-1117, chain 2 of 2): as the sequence (P02465 80-1117, chain 2 of 2, further chain) above
Briefly: ELISA. The settings on record: both partners purified.

Bounds are passed on as bounds.

Chain of type I gelatin (heat-denatured acid-soluble type I atelocollagen from bovine hides) (bovine) (P02453 23-1217, chain 1 of 2): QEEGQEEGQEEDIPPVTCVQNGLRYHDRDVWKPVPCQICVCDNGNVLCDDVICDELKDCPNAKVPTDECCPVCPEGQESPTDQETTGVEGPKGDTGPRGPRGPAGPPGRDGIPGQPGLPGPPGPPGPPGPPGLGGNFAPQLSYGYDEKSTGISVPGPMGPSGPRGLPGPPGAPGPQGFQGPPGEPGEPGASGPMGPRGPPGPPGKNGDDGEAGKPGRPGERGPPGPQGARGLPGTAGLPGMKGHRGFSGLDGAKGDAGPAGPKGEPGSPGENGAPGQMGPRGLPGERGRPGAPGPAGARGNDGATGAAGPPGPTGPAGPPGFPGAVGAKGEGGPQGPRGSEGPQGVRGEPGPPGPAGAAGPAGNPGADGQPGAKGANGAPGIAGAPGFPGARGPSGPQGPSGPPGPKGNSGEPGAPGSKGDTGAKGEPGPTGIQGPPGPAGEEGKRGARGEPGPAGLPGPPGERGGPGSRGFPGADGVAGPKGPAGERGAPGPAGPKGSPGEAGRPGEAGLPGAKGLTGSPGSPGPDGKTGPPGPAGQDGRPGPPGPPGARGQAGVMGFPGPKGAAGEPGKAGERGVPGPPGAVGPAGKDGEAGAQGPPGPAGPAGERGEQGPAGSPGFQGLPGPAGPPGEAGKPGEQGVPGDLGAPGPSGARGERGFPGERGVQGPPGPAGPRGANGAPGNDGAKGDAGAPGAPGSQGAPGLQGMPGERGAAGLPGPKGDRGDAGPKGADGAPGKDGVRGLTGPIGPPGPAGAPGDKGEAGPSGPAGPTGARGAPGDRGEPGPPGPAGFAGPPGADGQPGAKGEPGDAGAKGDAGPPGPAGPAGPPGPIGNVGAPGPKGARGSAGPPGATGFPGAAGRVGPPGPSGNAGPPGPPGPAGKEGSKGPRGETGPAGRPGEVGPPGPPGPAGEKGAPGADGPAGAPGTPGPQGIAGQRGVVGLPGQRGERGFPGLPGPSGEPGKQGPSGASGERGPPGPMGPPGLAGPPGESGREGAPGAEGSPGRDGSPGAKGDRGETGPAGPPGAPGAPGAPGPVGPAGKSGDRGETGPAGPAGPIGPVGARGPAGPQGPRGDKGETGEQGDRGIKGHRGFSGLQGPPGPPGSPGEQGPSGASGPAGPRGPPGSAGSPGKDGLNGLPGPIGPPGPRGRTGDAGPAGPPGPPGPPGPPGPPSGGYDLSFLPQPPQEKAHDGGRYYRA
Chain of type I gelatin (heat-denatured acid-soluble type I atelocollagen from bovine hides) (bovine) (P02465 80-1117, chain 2 of 2, further chain): as the sequence (P02465 80-1117, chain 2 of 2, further chain) above

A word on the Kd: it is the free concentration of one partner at which half of the binding sites on the other are occupied at equilibrium, for simple one-to-one binding. With “ColG-AD (Y119-S392) (from UniProt Q9X721 119-392) (domain or fragment)”, in experiment [1], the Kd was 0.11 µM.

“ColG-CBD2 (N1004-K1118) (from UniProt Q9X721 1004-1118) (domain or fragment)” returned a Kd in experiment [1] of 253 µM. Consider “ColG-CU CL4-G494V, crosslinked (domain or fragment)”, for which, in experiment [2], the dissociation constant (Kd) was determined as 36 µM. Consider “ColG-CU CL4-G494V, noncrosslinked (reduced) (domain or fragment)”, for which, in experiment [3], the Kd amounted to 2.9 µM. Take “ColG-CU E524A (Y119-G790) (domain or fragment)”: the Kd in experiment [4] was determined as 0.37 µM; in [1] it was 0.08 µM. With “ColG-FL E524A (Y119-K1118) (from UniProt Q9X721 119-1118) (enzyme)”, the Kd in experiment [4] turned out to be 0.024 µM; in experiment [1], 0.031 µM.

Turning to “ColG-PD E524A (D398-G790) (domain or fragment)”, the Kd in experiment [4] was determined as 497 µM; in experiment [1] it was 243 µM.

On to “ColG-PKD (I799-N880) (from UniProt Q9X721 799-880) (domain or fragment)”, for which, in experiment [5], the Kd was > 1000 µM. ColQ1-CU G472V (domain or fragment): the Kd in [6] and in [7] was 1.6 µM each time. For ColQ1-CU G472V E166A, the Kd in experiment [8] stood at 4.8 µM. The same measure, in the same setting: with ColQ1-CU G472V F123A the figure was 1.5 µM. The same measure, in the same setting: to ColQ1-CU G472V F176A belongs 1.1 µM. In experiment [7], “ColQ1-CU G472V F176A (domain or fragment)” yielded a fold increase in affinity against ColQ1-CU G472V of 20 fold. Take “ColQ1-CU G472V N226A (domain or fragment)”: the Kd in experiment [6] and in experiment [7] was > 150 µM in each case. Consider ColQ1-CU G472V R169A, for which the Kd in [8] came to 2.7 µM.

Consider “ColQ1-CU G472V R169A (domain or fragment)”, for which the fold increase in affinity against ColQ1-CU G472V in experiment [7] was 9 fold. For “ColQ1-CU G472V Y173A (domain or fragment)”, the fold drop in binding affinity against ColQ1-CU G472V in [6] was 15 fold. As to “ColQ1-CU G472V Y270A (domain or fragment)”, in experiment [7], the fold increase in affinity against ColQ1-CU G472V was determined as 8 fold. Usually stoichiometry N stands for the number of molecules, sites or subunits per partner or assembly. V-domain of Scl2.3 (domain or fragment) yielded a stoichiometry N in [9] of 3.

B1: ColG-CBD2 (N1004-K1118) (domain or fragment)
chain: NEKLKEKENNDSSDKATVIPNFNTTMQGSLLGDDSRDYYSFEVKEEGEVNIELDKKDEFGVTWTLHPESNINDRITYGQVDGNKVSNKVKLRPGKYYLLVYKYSGSGNYELRVNK
modifications: fluorescently labeled in the fibrillar collagen assay (dye not stated)
notes: source: E. coli Nico21 (DE3), purified
On to B1, for which binding in experiment [10] was characterised by a dissociation constant (Kd) of 14 ± 1 µM.

B2: ColG-PKD (I799-N880) (domain or fragment)
chain: IAKVTGPSTGAVGRNIEFSGKDSKDEDGKIVSYDWDFGDGATSRGKNSVHAYKKAGTYNVTLKVTDDKGATATESFTIEIKN
notes: as for B1
For the molecule B2, the Kd in experiment [11] was > 1000 µM.

B3: ColG-AD (Y119-S392) (domain or fragment)
chain: YDFEYLNGLSYTELTNLIKNIKWNQINGLFNYSTGSQKFFGDKNRVQAIINALQESGRTYTANDMKGIETFTEVLRAGFYLGYYNDGLSYLNDRNFQDKCIPAMIAIQKNPNFKLGTAVQDEVITSLGKLIGNASANAEVVNNCVPVLKQFRENLNQYAPDYVKGTAVNELIKGIEFDFSGAAYEKDVKTMPWYGKIDPFINELKALGLYGNITSATEWASDVGIYYLSKFGLYSTNRNDIVQSLEKAVDMYKYGKIAFVAMERITWDYDGIGS
modifications: fluorescently labeled in the fibrillar collagen assay (dye not stated)
notes: as for B1
Regarding B3, the affinity in experiment [10], expressed as Kd, was 0.072 ± 0.009 µM.

These data come from PMC11032491, “A conserved strategy to attack collagen: The activator domain in bacterial collagenases unwinds triple-helical collagen” (Proceedings of the National Academy of Sciences of the …, 2024).
